Measured values from patent US20240207319A1 (LUDWIG INSTITUTE FOR CANCER RESEARCH, published 2024).

B1: PD1_4XMUT_M70 (with 6xHis), soluble monomeric PD1 decoy variant (bacterial production) (receptor)
chain: MASDSPDRPWNPPTFSPALLVVTEGDNATFTCSFSNTSESFVLNWYRMSPSNQDDRLAAFPEDRSQPGQDARFRVTQLPNGRDFHMSVVRARRNDSGTYFCGAISLAPKAKIKESLRAELRVTERRALEHHHHHH
B2: PD1_6XDM (with 6xHis), soluble monomeric PD1 decoy variant (bacterial production) (receptor)
chain: MASDSPDRPWNPPTFSPALLVVTEGDNATFTCSFSNTSESFVLNWYRMSPSNQVDRLAAFPEDRSQPGQDARFRVTQLPNGRDFHMSVVRARRNDSGTYFCGAISLAPKWKIKESLRAELRVTERRALEHHHHHH
notes: also called 6×DM; variant 6×DM

Target: human PDL1 protein (plate-coated) (human, UniProt Q9NZQ7 19-238, limits assumed)
Test: titration ELISA, soluble monomeric decoy on plates coated with human PDL1 protein, anti-His tag detection
Procedure: FIGS. 9A, 9B, 9C, and 9D are a set of diagrams showing characterization of PD-1 decoy variants and hCD8+ T cells transduced with the PD-1 decoy variants and tEGFR. […] Bound PD1 decoy molecules were detected with an anti-His tag antibody. […] The engineered T cells were co-cultured at a 1:1 ratio with different PD-L1⁺ target tumor cells (100,000 of each cell type) for 48 hours. NA8 and HLA/A2+NY-ESO-1−, SAOS2, and A375 are HLA/A2+ NY-ESO-1+. The supernatants were collected after 48 hours, diluted 1 in 25, and evaluated for the presence of IFNγ using a commercial ELISA kit from Thermo). […] CD8 T cells engineered with PD1 decoy_tEGFR retrovirus were labeled with chromium. The engineered T cells were co-cultured with anti-EGFR Ab and co-cultured with different ratios of PBMCs from the same donor. The negative control is NT (non-transduced) T cells Killing evaluated at 4 hours. As positive control, T cells were treated with HCl.

Sequence of human PDL1 protein (plate-coated) (Q9NZQ7 19-238 limits assumed): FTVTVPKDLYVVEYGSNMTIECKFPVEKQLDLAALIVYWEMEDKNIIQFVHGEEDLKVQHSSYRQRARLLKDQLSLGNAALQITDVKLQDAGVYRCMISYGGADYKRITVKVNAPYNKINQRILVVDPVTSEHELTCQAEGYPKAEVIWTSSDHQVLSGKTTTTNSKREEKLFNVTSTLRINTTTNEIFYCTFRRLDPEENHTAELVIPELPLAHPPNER

| Binder | fold better binding than the WT PD1 decoy [fold] |
| --- | --- |
| B1 | 10 |
| B2 | ~7.5 |
